{"source": "paper PMC3904411", "key": {"[1]": {"target": "PcrG (Pseudomonas aeruginosa strain 2192)", "experiment": "SEC; HiLoad 16/60 Superdex 200 pg; 25 mM Tris–HCl pH 7.4, 150 mM NaCl; proteins 2–5 mg/ml; 1 ml/min; calibrated with markers"}, "[2]": {"target": "∆PcrG_((13–72)) (Pseudomonas aeruginosa strain 2192)", "experiment": "SPR; BIACORE 3000, NTA sensor chip; […]; 10 mM hepes pH 7.4, 150 mM NaCl, 50 μM EDTA; 25°C; 5 μl/min; Langmuir binding model"}, "[3]": {"target": "PcrG (Pseudomonas aeruginosa strain 2192)", "experiment": "SPR; BIACORE 3000, NTA sensor chip; […]; 10 mM hepes pH 7.4, 150 mM NaCl, 50 μM EDTA; 25°C; 5 μl/min; Langmuir binding model"}, "[4]": {"target": "PcrG (Pseudomonas aeruginosa strain 2192)", "experiment": "dynamic light scattering; Malvern Zetasizer nano ZS; proteins 2–5 mg/ml, filtered 0.22 micron; ΔPcrV(128–294) alone and with equimolar PcrG"}, "[5]": {"target": "PcrG (Pseudomonas aeruginosa strain 2192)", "experiment": "cross-linking; EGS-sulfonate 0.5 mM, 1 mM and 2 mM, room temperature, 30 minutes; 10 mM hepes pH 7.4, 150 mM NaCl; 12% SDS PAGE"}, "[6]": {"target": "∆PcrG_((13–72)) (Pseudomonas aeruginosa strain 2192)", "experiment": "native MS; called native mass spectrometry; protein diluted to 0.5-1.0 mg/ml in HPLC water, spotted on a MALDI target plate with CHCA matrix; Applied Biosystem 4700 Proteomics Analyser"}}}
{"substance": "PcrG (natural protein)", "values": [{"measurement": "stoichiometry N", "setting": "[1]", "result": 2}]}
{"substance": "PcrV (from UniProt G3XD49 1-294) (natural protein)", "values": [{"measurement": "Ka", "setting": "[2]", "result": "1.75e+06", "unit": "M⁻¹"}, {"measurement": "Kd", "setting": "[2]", "result": 570, "unit": "nM"}, {"measurement": "koff", "setting": "[2]", "result": 0.00978, "unit": "s⁻¹"}, {"measurement": "kon", "setting": "[2]", "result": 17100, "unit": "M⁻¹ s⁻¹"}]}
{"substance": "ΔPcrV_((1–158)) (from UniProt G3XD49 1-158) (domain or fragment)", "values": [{"measurement": "Kd", "setting": "[3]", "result": 203, "unit": "nM"}]}
{"substance": "ΔPcrV_((1–250)) (from UniProt G3XD49 1-250) (domain or fragment)", "values": [{"measurement": "Kd", "setting": "[3]", "result": 179, "unit": "nM"}]}
{"substance": "ΔPcrV_((128–250)) (from UniProt G3XD49 128-250) (domain or fragment)", "values": [{"measurement": "Kd", "setting": "[3]", "result": 247, "unit": "nM"}]}
{"substance": "ΔPcrV_((128–294)) (from UniProt G3XD49 128-294) (domain or fragment)", "values": [{"measurement": "Ka", "setting": "[2]", "result": "1.61e+06", "unit": "M⁻¹"}, {"measurement": "Kd", "setting": "[2]", "result": 621, "unit": "nM"}, {"measurement": "koff", "setting": "[2]", "result": "1.69e-05", "unit": "s⁻¹"}, {"measurement": "kon", "setting": "[2]", "result": 27.2, "unit": "M⁻¹ s⁻¹"}, {"measurement": "Ka", "setting": "[3]", "result": "4.11e+07", "unit": "M⁻¹"}, {"measurement": "Kd", "setting": "[3]", "result": 24.3, "unit": "nM"}, {"measurement": "koff", "setting": "[3]", "result": "1.24e-05", "unit": "s⁻¹"}, {"measurement": "kon", "setting": "[3]", "result": 511, "unit": "M⁻¹ s⁻¹"}, {"measurement": "stoichiometry N", "setting": "[4]", "result": 1}, {"measurement": "stoichiometry N", "setting": "[5]", "result": 1}]}
{"substance": "ΔPcrV_((159–294)) (from UniProt G3XD49 159-294) (domain or fragment)", "values": [{"measurement": "Kd", "setting": "[3]", "result": 36.6, "unit": "nM"}]}
{"substance": "∆PcrG_((13–72)) (domain or fragment)", "values": [{"measurement": "stoichiometry N", "setting": "[6]", "result": 2}]}
